This passage reports Kd results from paper PMC6702080 (2019).

This test concerns the target T1, BolA2 (Homo sapiens, UniProt Q9H3K6).
T1 chain: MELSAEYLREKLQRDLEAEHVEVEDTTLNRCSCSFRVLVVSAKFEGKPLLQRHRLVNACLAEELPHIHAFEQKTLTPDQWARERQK
The experiment in a line: pull-down.

B1: PCBP1 KH3 (protein)
chain: ASTQTTHELTIPNNLIGCIIGRQGANINEIRQMSGAQIKIANPVEGSSGRQVTITGSAASISLAQYLINAR
modifications: Fe(II)+GSH
The molecule B1 returned an equilibrium dissociation constant (Kd) of 900 nM.
